Source: patent US20200277339A1

Target: recombinant purified fragment of TLR5 ectodomain of fish origin (fish)
Test: competition fluorescence polarization, cell-free

For CBLB502 (ligand), which Relative EC50 vs 502, Binding (FP) is on record?
The Relative EC50 vs 502, Binding (FP) was 1 fold vs 502.
